Data taken from paper PMC12102759 (2025).

B1: SH3BP2 peptide 408-423 (SH3 domain-binding protein 2), 16-mer library wild type / TNKS ANK (TNKS 12 ANK repeats, residues 174-649) (parent complex)
chain 1: PQLPHLQRSPPDGQSF
chain 2: TGVPAVSGALRELLEACRNGDVSRVKRLVDAANVNAKDMAGRKSSPLHFAAGFGRKDVVEHLLQMGANVHARDDGGLIPLHNACSFGHAEVVSLLLCQGADPNARDNWNYTPLHEAAIKGKIDVCIVLLQHGADPNIRNTDGKSALDLADPSAKAVLTGEYKKDELLEAARSGNEEKLMALLTPLNVNCHASDGRKSTPLHLAAGYNRVRIVQLLLQHGADVHAKDKGGLVPLHNACSYGHYEVTELLLKHGACVNAMDLWQFTPLHEAASKNRVEVCSLLLSHGADPTLVNCHGKSAVDMAPTPELRERLTYEFKGHSLLQAAREADLAKVKKTLALEIINFKQPQSHETALHCAVASLHPKRKQVTELLLRKGANVNEKNKDFMTPLHVAAERAHNDVMEVLHKHGAKMNALDTLGQTALHRAALAGHLQTCRLLLSYGSDPSIISLQGFTAAQMGNEAVQQILSESTPIRTSD

Variants of: B1
Assay: proteomic peptide phage display deep mutational scan (ProP-PD DMS): M13 P8 16-mer library selected against immobilised GST-tagged bait for four days (rounds), NGS of the eluted pools per day and pseudo-replica; bait immobilised on MaxiSorp plates (10 µg), library pre-cleared on GST, 2 h binding at 4 °C, five washes; one round per day, days 1-4; value from days 2 and 3

Variant | screen value
chain 1 P4Y | 0.000273 average fractional NGS count over selection days 2 and 3 (reads of this peptide / all reads for the bait, averaged over …
chain 1 P4Q | 0.000351 average fractional NGS count over selection days 2 and 3 (reads of this peptide / all reads for the bait, averaged over …
chain 1 P4A | 0.00484 average fractional NGS count over selection days 2 and 3 (reads of this peptide / all reads for the bait, averaged over …
chain 1 P4L | 0.000189 average fractional NGS count over selection days 2 and 3 (reads of this peptide / all reads for the bait, averaged over …
chain 1 P10F | 0.000203 average fractional NGS count over selection days 2 and 3 (reads of this peptide / all reads for the bait, averaged over …
chain 1 P10N | 0.00386 average fractional NGS count over selection days 2 and 3 (reads of this peptide / all reads for the bait, averaged over …
chain 1 P10T | 0.00166 average fractional NGS count over selection days 2 and 3 (reads of this peptide / all reads for the bait, averaged over …
chain 1 P10H | 0.0139 average fractional NGS count over selection days 2 and 3 (reads of this peptide / all reads for the bait, averaged over …
chain 1 P10S | 0.000405 average fractional NGS count over selection days 2 and 3 (reads of this peptide / all reads for the bait, averaged over …
chain 1 P10V | 0.00118 average fractional NGS count over selection days 2 and 3 (reads of this peptide / all reads for the bait, averaged over …
chain 1 P10L | 0.00106 average fractional NGS count over selection days 2 and 3 (reads of this peptide / all reads for the bait, averaged over …
chain 1 P10G | 0.00637 average fractional NGS count over selection days 2 and 3 (reads of this peptide / all reads for the bait, averaged over …
chain 1 P10Y | 0.000858 average fractional NGS count over selection days 2 and 3 (reads of this peptide / all reads for the bait, averaged over …
chain 1 P10W | 0.000201 average fractional NGS count over selection days 2 and 3 (reads of this peptide / all reads for the bait, averaged over …
chain 1 P10K | 0.00107 average fractional NGS count over selection days 2 and 3 (reads of this peptide / all reads for the bait, averaged over …
chain 1 P10I | 0.00249 average fractional NGS count over selection days 2 and 3 (reads of this peptide / all reads for the bait, averaged over …
chain 1 P10Q | 0.00105 average fractional NGS count over selection days 2 and 3 (reads of this peptide / all reads for the bait, averaged over …
chain 1 S9W | 0.000206 average fractional NGS count over selection days 2 and 3 (reads of this peptide / all reads for the bait, averaged over …
chain 1 S9K | 0.000447 average fractional NGS count over selection days 2 and 3 (reads of this peptide / all reads for the bait, averaged over …
chain 1 S9L | 0.00406 average fractional NGS count over selection days 2 and 3 (reads of this peptide / all reads for the bait, averaged over …
chain 1 S9N | 0.000282 average fractional NGS count over selection days 2 and 3 (reads of this peptide / all reads for the bait, averaged over …
chain 1 S9T | 0.00132 average fractional NGS count over selection days 2 and 3 (reads of this peptide / all reads for the bait, averaged over …
chain 1 S9V | 0.0149 average fractional NGS count over selection days 2 and 3 (reads of this peptide / all reads for the bait, averaged over …
chain 1 S9F | 0.00032 average fractional NGS count over selection days 2 and 3 (reads of this peptide / all reads for the bait, averaged over …
chain 1 S9Q | 0.00451 average fractional NGS count over selection days 2 and 3 (reads of this peptide / all reads for the bait, averaged over …

Variant | screen value
chain 1 S9A | 0.000813 average fractional NGS count over selection days 2 and 3 (reads of this peptide / all reads for the bait, averaged over …
chain 1 S9P | 0.000122 average fractional NGS count over selection days 2 and 3 (reads of this peptide / all reads for the bait, averaged over …
chain 1 S9Y | 0.000793 average fractional NGS count over selection days 2 and 3 (reads of this peptide / all reads for the bait, averaged over …
chain 1 S9M | 0.00474 average fractional NGS count over selection days 2 and 3 (reads of this peptide / all reads for the bait, averaged over …
chain 1 L3A | 0.000216 average fractional NGS count over selection days 2 and 3 (reads of this peptide / all reads for the bait, averaged over …
chain 1 L3S | 0.000201 average fractional NGS count over selection days 2 and 3 (reads of this peptide / all reads for the bait, averaged over …
chain 1 L3I | 0.000205 average fractional NGS count over selection days 2 and 3 (reads of this peptide / all reads for the bait, averaged over …
chain 1 L3E | 0.00036 average fractional NGS count over selection days 2 and 3 (reads of this peptide / all reads for the bait, averaged over …
chain 1 L3K | 0.000138 average fractional NGS count over selection days 2 and 3 (reads of this peptide / all reads for the bait, averaged over …
chain 1 L3M | 0.000961 average fractional NGS count over selection days 2 and 3 (reads of this peptide / all reads for the bait, averaged over …
chain 1 L3H | 0.000462 average fractional NGS count over selection days 2 and 3 (reads of this peptide / all reads for the bait, averaged over …
chain 1 L3N | 0.000433 average fractional NGS count over selection days 2 and 3 (reads of this peptide / all reads for the bait, averaged over …
chain 1 L3V | 0.000203 average fractional NGS count over selection days 2 and 3 (reads of this peptide / all reads for the bait, averaged over …
chain 1 L3F | 0.000552 average fractional NGS count over selection days 2 and 3 (reads of this peptide / all reads for the bait, averaged over …
chain 1 L3P | 0.000341 average fractional NGS count over selection days 2 and 3 (reads of this peptide / all reads for the bait, averaged over …
chain 1 L3R | 0.000308 average fractional NGS count over selection days 2 and 3 (reads of this peptide / all reads for the bait, averaged over …
chain 1 Q2E | 0.000696 average fractional NGS count over selection days 2 and 3 (reads of this peptide / all reads for the bait, averaged over …
chain 1 Q2V | 0.000821 average fractional NGS count over selection days 2 and 3 (reads of this peptide / all reads for the bait, averaged over …
chain 1 Q2K | 0.000141 average fractional NGS count over selection days 2 and 3 (reads of this peptide / all reads for the bait, averaged over …
chain 1 Q2A | 0.000765 average fractional NGS count over selection days 2 and 3 (reads of this peptide / all reads for the bait, averaged over …
chain 1 Q2M | 0.000169 average fractional NGS count over selection days 2 and 3 (reads of this peptide / all reads for the bait, averaged over …
chain 1 Q2G | 0.000233 average fractional NGS count over selection days 2 and 3 (reads of this peptide / all reads for the bait, averaged over …
chain 1 Q2S | 0.00172 average fractional NGS count over selection days 2 and 3 (reads of this peptide / all reads for the bait, averaged over …
chain 1 Q2P | 0.00147 average fractional NGS count over selection days 2 and 3 (reads of this peptide / all reads for the bait, averaged over …
chain 1 Q2L | 0.00153 average fractional NGS count over selection days 2 and 3 (reads of this peptide / all reads for the bait, averaged over …

Variant | screen value
chain 1 Q2D | 0.00112 average fractional NGS count over selection days 2 and 3 (reads of this peptide / all reads for the bait, averaged over …
chain 1 Q2F | 0.000172 average fractional NGS count over selection days 2 and 3 (reads of this peptide / all reads for the bait, averaged over …
chain 1 Q2H | 0.000483 average fractional NGS count over selection days 2 and 3 (reads of this peptide / all reads for the bait, averaged over …
chain 1 Q14G | 0.000379 average fractional NGS count over selection days 2 and 3 (reads of this peptide / all reads for the bait, averaged over …
chain 1 Q14N | 0.000561 average fractional NGS count over selection days 2 and 3 (reads of this peptide / all reads for the bait, averaged over …
chain 1 Q14K | 0.00049 average fractional NGS count over selection days 2 and 3 (reads of this peptide / all reads for the bait, averaged over …
chain 1 Q14V | 0.00071 average fractional NGS count over selection days 2 and 3 (reads of this peptide / all reads for the bait, averaged over …
chain 1 Q14S | 0.0015 average fractional NGS count over selection days 2 and 3 (reads of this peptide / all reads for the bait, averaged over …
chain 1 Q14H | 0.00138 average fractional NGS count over selection days 2 and 3 (reads of this peptide / all reads for the bait, averaged over …
chain 1 Q14M | 0.00362 average fractional NGS count over selection days 2 and 3 (reads of this peptide / all reads for the bait, averaged over …
chain 1 Q14R | 0.000901 average fractional NGS count over selection days 2 and 3 (reads of this peptide / all reads for the bait, averaged over …
chain 1 Q14E | 0.000266 average fractional NGS count over selection days 2 and 3 (reads of this peptide / all reads for the bait, averaged over …
chain 1 Q14I | 0.000236 average fractional NGS count over selection days 2 and 3 (reads of this peptide / all reads for the bait, averaged over …
chain 1 Q14F | 0.000219 average fractional NGS count over selection days 2 and 3 (reads of this peptide / all reads for the bait, averaged over …
chain 1 Q14L | 0.000462 average fractional NGS count over selection days 2 and 3 (reads of this peptide / all reads for the bait, averaged over …
chain 1 Q14Y | 0.000878 average fractional NGS count over selection days 2 and 3 (reads of this peptide / all reads for the bait, averaged over …
chain 1 Q14T | 0.00291 average fractional NGS count over selection days 2 and 3 (reads of this peptide / all reads for the bait, averaged over …
chain 1 H5G | 0.000153 average fractional NGS count over selection days 2 and 3 (reads of this peptide / all reads for the bait, averaged over …
chain 1 H5I | 0.000472 average fractional NGS count over selection days 2 and 3 (reads of this peptide / all reads for the bait, averaged over …
chain 1 H5S | 0.000337 average fractional NGS count over selection days 2 and 3 (reads of this peptide / all reads for the bait, averaged over …
chain 1 H5P | 0.000222 average fractional NGS count over selection days 2 and 3 (reads of this peptide / all reads for the bait, averaged over …
chain 1 H5Y | 0.000149 average fractional NGS count over selection days 2 and 3 (reads of this peptide / all reads for the bait, averaged over …
chain 1 H5V | 0.000333 average fractional NGS count over selection days 2 and 3 (reads of this peptide / all reads for the bait, averaged over …
chain 1 H5R | 0.00137 average fractional NGS count over selection days 2 and 3 (reads of this peptide / all reads for the bait, averaged over …
chain 1 H5T | 0.000644 average fractional NGS count over selection days 2 and 3 (reads of this peptide / all reads for the bait, averaged over …
